Source: the supplement of paper PMC9170038

Test system: MS2 coat protein
Experiment: apparent KD of MS2 coat protein; designed switch direction (-1 OFF switch, 1 ON switch): -1; higher = weaker reporter binding
Method in brief: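 Apparent KD, taken as the median over clusters for each design, was obtained by curve-fitting normalised cluster fluorescence. Designed RNA switches had been transcribed on Illumina chips by stalled E. coli RNA polymerase and titrated with SNAP-549-labelled MS2 coat protein, doubling from 0.7 or 1.5 nM to 3 µM.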

[1] = input ligand: microRNA oligo, concentration not stated
[2] = Eterna round: R95, input ligand: microRNA oligo, concentration not stated
[3] = Eterna round: R95, input ligand: FMN 200 uM
[4] = Eterna round: R95, input ligand: none

Sequence	apparent KD of MS2 coat protein (input ligand: FMN 200 uM) [nM]	apparent KD of MS2 coat protein [1] [nM]	apparent KD of MS2 coat protein (input ligand: none) [nM]	apparent KD of MS2 coat protein [2] [nM]	apparent KD of MS2 coat protein [3] [nM]	apparent KD of MS2 coat protein [4] [nM]
UUAAAUCAUGUAGGAUAUGCGUAGCGAAGCUAUGCAGAAGGACAUGAGGAUCACCCAUGUGCUUGCGUCCGCGUACGGAUGCUA [Mat - Exclusion NG 1 - Mod of JL - D66] (Eterna round: R96, puzzle: Exclusion NG 1)	202	107	134			
CCCGAGUUAGGAUAUAAACCAAAGUAACCAGCAGCUUAGCUUUAGAAGGAACAUGAGGAUCACCCAUGUGGUCU [Eternabot (L2) Solution 70] (Eterna round: R97, puzzle: Exclusion 4)	119		107			
CACCGUUACAGAGGAUAUGGCACAUGAGGAUCACCCAUGUAAUAAAUGAGAAUUUCGGAUGUAUUCCAGAAGGCUGUAACCGGC [Ostricism 68 - Jieux - Exclusion NG 2] (Eterna round: R96, puzzle: Exclusion NG 2)	41.2	19	35.6			
AUAUUGUGAGGAUAUGAACUUACUAUCGAAAGAUACUAAGUUCAGAAGGCACAUGAGGAUCACCCAUGUUUCUC [Long static hairpin v19] (Eterna round: R97, puzzle: Exclusion 4)	664		76.1			
AACGUCUAGGUAGGAUAUCCACCAACAGGUGGAAGGAUAUGGAAACAGAAGGUUCGCCAACAGGCGGAGAAGGACCUACGCGUA [pwkr exNG2 2xF7 2xFMN.25] (Eterna round: R96, puzzle: Exclusion NG 2)	50.4	162	387			
CGUCUGUCGGAAGGAUAUGUAGGGUGUCUUUUCCUCAGUACGAAGUACAUGAGGAUCACCCAUGUACAGAAGGUCCACAAUUAA [Essosoedso] (Eterna round: R96, puzzle: Exclusion NG 2)	109	67.9	75.3			
CUUCGACAUGAGGAUCACCCAUGUCAGGAUAUUGUGUAUCUGGUUUUUUACAGAUAGACAAGAAGGGAUGUGUU [LRO-Excl1-01] (puzzle: Exclusion 1)				25.2		
GAGCUGUGAGGAUAUACAUGAGGAUCACCCAUGUUAAGGAAGUGGUGAAUAAUUUAGUGUAGAAGGCACUUAUU [JR_Ex3_Sub023] (Eterna round: R97, puzzle: Exclusion 3)	530		116			
CUUUUUUUUGUGAGGAUAUACUGUUAUUAAAGUUAGUAGAAGGUACAUGAGGAUCACCCAUGUUAAUUACUCUA [JR_BME4_Sub049] (puzzle: Brourd's mod of Exclusion 4)				14.2		
AAAGAACAUGAGGAUCACCCAUGUGAGGAUAUGCGAAAACCGCUAACAAACCAGACGGGCAGAAGGCAUAUGGU [Leistequ] (puzzle: Exclusion 1)				39.1	68.9	63.7
GCAGAAUGAGUUAGGAUAUGAUGAUUUUUUUUAUAUCAGAAGGAACUUGAGGAUCACCCAAGUUAAGAUAGGGU [JR_BMEx4_Sub067] (Eterna round: R97, puzzle: Brourd's mod of Exclusion 4)	89.2		138			
GGUGGACAUGAGGAUCACCCAUGUGAGGAUAUCGGCUGGCUACUGGCUGACGGCUGCUCGAGAAGGCGCAUUGU [Exclusion 1 V87] (puzzle: Exclusion 1)				38.4		
GUGCCGCGAGGAUAUACAGACGGGUCCAUUACGUGUCUCGGACUUGAGGAUCACCCAAGUAGAAGGCGUCUCAG [salish99_ex2_r4_625] (Eterna round: R97, puzzle: Exclusion 2)	51.3		40.2			
CCCUCACAUGAGGAUCACCCAUGUUAGGAUAUGGGAGGUACCUGCGUGAGCGCACCACCCAGAAGGGACCAGGC [Eternabot (L2) Solution 4] (Eterna round: R97, puzzle: Exclusion 1)	130		159			
UCUUCACAUGAGGAUCACCCAUGUGAGGAUAUGGAUUCGCUGGCCGUAGCCAGUGGAUCCAGAAGGCGCGUGAU [JL-ex1-4.23] (Eterna round: R97, puzzle: Exclusion 1)	65		74			
UCCUUACUGGUCAGGAUAUACAUUCGCGGGUGGGUGUAGAAGGGACAUGAGGAUCACCCAUGUACGUUACAUCC [alecazam54g] (Eterna round: R97, puzzle: Brourd's mod of Exclusion 4)	18		16			
GCACUGCGAGGAUAUACAUGAGGAUCACCCAUGUAUCGGUAGUCAAGGUUAAUUUAAGGUAGAAGGCGCGUAUU [JR_Ex3_Sub006] (Eterna round: R97, puzzle: Exclusion 3)	23.9		22.7			
AGGCGGAAAGUAAGGAUAUCUUGACCAAAGGGUUGAGAGAAGGUACAUGAGGAUCACCCAUGUGUUUACCGCCA [Shrinking Claw (Vienna2)] (Eterna round: R97, puzzle: Brourd's mod of Exclusion 4)	12.4		12.9			
UUUCCCUGUGUGAGGAUAUACUUGUUUGGGUUUUUGUAGAAGGCACAUGAGGAUCACCCAUGUAUUUUGUCGUG [JR_BME4_Sub020] (puzzle: Brourd's mod of Exclusion 4)				40.9		
AGUAACUAUCACGAAAGUGAUAGUUACAAACAAGUGAAAACAUGAGGAUCACCCAUGUCCUCAUUUGCUCGUCUUAU [Sensor 3 - 7] (puzzle: Sensor v3, turn-off variant 2)				884	182	329
CUGAUGUCAGGAUAUCAGAAAAGGCACAAGAACGCGCCAAAUGAGAAGGGACAUGAGGAUCACCCAUGUAAAAC [Reena] (puzzle: Exclusion 4)				28.2	87.1	27.9
UGUUGUUCAGGAUAUGAAGUAUAUUACAUGAGGAUCACCCAUGUAGAUCCUGAAUAUACAUCAGAAGGGAAUAUUU [JR_Ex5_Sub057] (Eterna round: R97, puzzle: Exclusion 5)	51		21.1			
UUAAUUAAUGUAGGAUAUGCAAGGCGAACCUAAGCAGAAGGACAUGUGGAUCACCCAUGUAAUGCGGUCUGCGUACAGAUCGCU [salish99_ex1_NG1_001] (Eterna round: R96, puzzle: Exclusion NG 1)	271	1170	1270			
CUGGGCCGAGGAUAUAUUAUGUGAAACAUGAGGAUCACCCAUGUAAUAUGAUGGAUGUAAAUAGAAGGCGGUCUAG [Mat - Exclusion 5 - JL mod - D27] (puzzle: Exclusion 5)				17.4	28.2	21.3
CAUUAUUAUCGAGGAUAUCCUAUUGUAAUUCUGGGAGAAGGCGGACUCAACAUGAGGAUCACCCAUGUAAGACGGGUGCUAGAG [Ex NG1 #24] (Eterna round: R96, puzzle: Exclusion NG 1)	306	236	276			
